The labels stand for the following.
B1: Grapevine associated narnavirus-1 (nucleic acid, listed as Narnavirus sp.)
DNA: GCCCGGGGGGTGCAGTCCTGTGAAAGGGTCTGCACCATACTATATATGTATATGATTACATCCCAAAAGGCGACTTCGTTCAGGTTTTAAATCTGACGTAGGTCCAGTAAATAAGCATGTCAAAACATGTAAGTTTATCCTGTAATCTACTCTCATAAGATGAGATAAGATGATATTGCAGTTCCCATGTAAATAAATCCATTATGAATTCATTCATATAAGGTAGAAGTGGTAACTATGGTTGAAACATTAATATAAAACGGTCATTTTGCATGAACGTCATTAAGGAACTGGCATACCAATGTCTATTTAGTGACTATGATATTTAGAGTATCCCTTATATTAATTAACAATTATTCCTTTTAGCATATCATCCGACAACAAATTTTAAAAGAAGAAATATTACTCATTAAAA
B2: Enterovirus AN12 (nucleic acid, listed as Enterovirus sp.)
DNA: TACCGCTGCACCAGTGAGCTGGTACGCTAGTACCTTCGCACGGAGTAGATGGCATCCCCCACCCCGTAACTTAGAAGCAAAGTACACATCTGGCCAATAGTGGCGCTGCATCCAGCCGCGCAACGGTCAAGCACTTCTGTTTCCCCGGTCCGCAAGGGTCGTTATCCGCCCAGTCCACTACGGAAAGCCTACTAACCATTGAAGCTATCGAGAGGTTGCGCTCGGCCACGACCCCGGTGGTAGCTCTGAGTGATGGGGCTCGCAAACACCCCCGTGGTAACACGGATGCTTGCCCGCGCGTGCACTCGGGTTCAGCCTATTGGTTGTTCACCTCAACATAGTGTAAATGGCCAAGAGCCTACTGTGCTGGATTGGTTTTCCTCCGGAGCCGTGAATGCTGCTAATCCCAACCTCCGAGCGTGTGCGCACAATCCAGTGTTGCTACGTCGTAACGCGTAAGTTGGAGGCGGAACAGACTACTTTCGGTACTCCGTGTTTCTTTTGTTTTATTTTGAATTTTATGGTGACAATTGCTGAGATTTGCGAATTAGCGACTCTACCGCTGAACATTGCCCTGTACTACCTAATCGCATTTCACAAAACCTCAGAGATACCAAGCTCTTACATTGATCTGCTTGTTTTCCTGAATCTCAAATATAAATTGGAACAAGCAAA
B3: Megirivirus A LY (nucleic acid)
DNA: TTCGGGACACTGGATGGGCGACTTGGTGGGGCTGCCACTCTATCTTGACCTTTCGTTACTGACTTTCGGATCTCTGACTCCTCCTTGTCTCTTGCGTTTGGTCCACGGACGGACTAATTGGAATGTTTACTGGCTAAGCCTCGTTCTGAAATACCCTAGCCAATGGGTTGTAGTAGGATCCTGGTGTTTCCATTAAACCTCTTCCGACCATAGTAGCTAGAGTTATGGCTGTGTAGGATGTGGGTAAGACCGCTTTTTGCGTATCTCCCACAAGACACCGGATTATGGATGTGTCCGCTGGATAAGGCTCGAAACCTCCCAACTGAAGGTGGTGCTGAAATATTGCAAGCCTAGGTTGTGTAGAGGCAAGTAGATGCCTGCCGCGACATTCGTCTTCCGCCCTTTTGGGTTAGTAGTGTACCTACATGGACGTGGGGCTGGGAATCCCCACCTTGCATAACACTGGTTGATAGACCTGCGGCTGGTCAAGTTACTATGGTATAACCAGTTGAAATGGCT
B4: Guereza hepacivirus (nucleic acid, listed as Hepacivirus sp.)
DNA: CACTCAATACTACACTCCGCATTTGGGGAGAAGCGCTGGCGTTCGCGGAACCGCGTTAACCATACGCGTAGTACGAGTGCGACAGACCCCGGTGCTACTGGTGGTAGCGAGACACGAGCCGAAGTCTGTGGGGGGAACTCCACTTAGAGGGCATGCCCGGGCGTAGGCTTCTGAGTTGGGATGGGCCCCAACTTGGCCCCTGAGTGGGGGGGTGTTACGACCTGATAGGGTGCGGGCTGGCGCCTACCACTTTCCAGTCGTACATGAGTC
B5: Equine rhinitis B virus 1 (nucleic acid)
DNA: CGACAGGCACAGGTCGCTCCGAGTTCTAGTAGTGTGGGAACTTGTTACTACTGATGAAACGAGGTAGTGACACTCAGTACCTGCGAACGAGGTCGGGGCCCTCCCTTCTTCCTTCACCCAACTTTCACTTTTCGTTCCACTTTAGCAGGGGTCTTCTTTCTATCCCCCTGGCGGCATTGGAACTAGCCGTCGCGTCTTAACGCGCAGCCCTGAAGGCCCCACACCTTGTGGATCTTGCCGTGGGTATGTTTCTGGCATGTGTTTCTCAAGCCTGCAACCGAAGCCGAACAGCCACATGAACAGTTTGAGCGTGGTAGCGCTGTGTGAGTTGGCGGTGGATCCCCCTCGTGGTAACACGAGCCCCCGTGGCCAAAAGCCCAGTGTTTACAGCACCTCTCACATCCAGGACGACCCCATCCTGGCGCTCACTCTTAGTAGTATGGCTTAGTACGCATTAGGTGGTAAGCCGAGCTCTCCCTCGGCCTTGTTCTGAATGCACACATGTCTAGGGGCTAAGGATGTCCTACAGGTACCCGCACGTAACCTTCAGAGAGTGCGGATCTGAGTAGGAGACCGTGGTGCACTGCTTTACAGATGCAGCCCGGTTTAAAAAGCGTCTATGCCCCTACAGGGTAGCGGTGGGCCGCGCCCTTTCCTTTTAAAACTACTTGTTCT
B6: Goat torovirus (nucleic acid, listed as Torovirus sp.)
DNA: GTACTTACAAGCGGGTTAAACCGCCCTCCGGAACGGTTACAACCCCCTCCCGAACGTGCGCTTGACGTGACTGGTTCTCAGTCTGGCTTTCTGAGAAATACTCCAGGGTTGTATCCCACCATCTTGACCTCTGGTCATTTTGGTAACACCATAACCAAACAAACTCTACACACCTAACCCACCTCCAGCTTGCTGCAGGCCTTTTGGACTAAACGGGTTTAGGTGTTTTGTGACCAACTCGTCTACCCACCTCCAGTTTTACTGCAGGCCTTTTTGGACTAAACGGCTTTAGACTTTTGTGGTTAGTTTTTAACTACCCACTGTTTAGCCGCCAACCTGATTTTCATTGTTGTAAAATTTTGTGTTTATACACTATTTTCATACGGTTGGCAGTTTGTTTGGTTGTTTGCACAGTTTTTGTTGATACCAATTTTTACTGTGCTTTTAGTGTATTCTGCTAAGGCTGTATTTTACATACTTAGTTTGGTTGAAGCAATTTTTACAACATTTATATTGTTTTTGATTTCTAAGGTAAAGAGTCTTAGGAAACACCATAGACGCCATTCTTGTGGTGTCTAGTTCCAACTAATCTGGCAAACAAGTACCAAGTCATTGACTCACTTTGGAGTGAGACTTACGAGTACCAATTTGCCTATTTCGGACATCCATATAAAG
B7: Enterovirus sp. isolate CPML (nucleic acid, listed as Enterovirus sp.)
DNA: ACTCTGGTATCACGGTACCTTTGCACGCCTATTTTATACCCCTTCCCCATCGTAACTTAGAAGCAACAAACAAACTGCCCAATAGCAGCACAACACCCAGTTGTGTTAGGGGCAAGCACTTCTGTTTCCCCGGAAGGGTCTGACGGTATGCTGTACCCACGGCAGAAGTATGACCTACCGTTAACCGGCCATGTACTTCGAGAAGCCTAGTACCATTATGAAGGTTGATTGATGTTACGCTCCCCAGCAACCCCAGCTGGTAGTTCTGGTCGATGAGTCTCGGCATTCCCCACGGGCGACCGTGGCCGAGGCTGCGTTGGCGGCCAGCCTACACCATACGGTGTAGGACGTCAAGATACTGACATGGTGTGAAGAGCCTATTGAGCTACGTGGTAGTCCTCCGGCCCCTGAATGCGGCTAATCCTAACTCCGGAGCATCCGCCAGTAAGCCCACTGGAAGGGTGTCGTAATGCGAAAGTCTGGAGCGGAACCGACTACTTTGGGTGTCCGTGTTTCCTGTTTTACTTATTGTTTGGCTGCTTATGGTGACAACTTATAGTTATCATCATAAGCTACTTGGTCTTGCCAACCGGAGAATTATTTGGTTATTTGTTGGTTTCATAAACCTACAGTCGTATTTTCCTGTCTTATTAATTGTTCTCAAAATTAACAACA
B8: Dianke virus (nucleic acid)
DNA: TGTTTTCAACCATAATACTACTACTACAAGTATAAAACCCCGTCCGTCTGTCGGAGACGCTAAACTCTGACCACCAATCTAGCCACATCAGTTGCTTAAAGAACCTCTTGAGACACTCTCCCACTTAACATCTTTTAGGAATCTTCGATGCTACAACAACTTGGCTAGTGAACAATAAATCCGTACAATTCACAGTTGTAAGAGGCCATAGGTCCAGACTTTGAAAGGTTTGTTTCTATTGTTACAAATACTTAGATTAACAGAGGCTATTTAATAGTGCTCATCACGTTAACAGAGTAACCTTGTGCAATAGTATGAGCTTGTTGTAAAACGTCTTGATACGACACC
B9: Equine rhinitis A virus (nucleic acid)
DNA: AAGGGTTACTGCTCGTAATGAGAGCACATGACATTTTGCCAAGATTTCCTGGCAATTGTCACGGGAGAGAGGAGCCCGTTCTCGGGCACTTTTCTCTCAAACAATGTTGGCGCGCCTCGGCGCGCCCCCCCTTTTTCAGCCCCCTGTCATTGACTGGTCGAAGGCGCTCGCAATAAGACTGGTCGTTGCTTGGCTTTTCTATTGTTTCAGGCTTTAGCGCGCCCTTGCGCGGCGGGCCGTCAAGCCCGTGTGCTGTACAGCACCAGGTAACCGGACAGCGGCTTGCTGGATTTTCCCGGTGCCATTGCTCTGGATGGTGTCACCAAGCTGGCAGATGCGGAGTGAACCTTACGAAGCGACACACCTGTGGTAGCGCTGCCCAGAAGGGAGCGGAGCTCCCCCGCCGCGAGGCGGTCCTCTCTGGCCAAAAGCCCAGCGTTAATAGCGCCTTCTGGGATGCAGGAACCCCACCTGCCAGGTGTGAAGTGGACTAAGTGGATCTCCAATTTGGCCTGTTCTGAACTACACCATCTACTGCTGTGAAGAATGTCCTGAAGGCAAGCTGGTTACAGCCCTGATCAGGAGCCCCGCTCGTGACTCTCGATCGACGCGGGGTCAAAAACTGTCTAAGCAGCAGCAGAAACGCGGGAGCGTTTCTTTTTCCTCATTTGTTTC
modifications: Equine rhinitis A virus
B10: Dolphin morbillivirus (nucleic acid, listed as Morbillivirus sp.)
DNA: ACCAGACAAAGCTGGCTAGGGGTAGAATAACAGATAATGATAAATTATCATACTTAGGATTAATGATCCTATCAATTGGCACAGGATTTGGATAAAGGTTCACAGTC
modifications: chemistry not fully specified; the letters are possibly those of the target site
B11: Equine arteritis virus (nucleic acid)
DNA: GCTCGAAGTGTGTATGGTGCCATATACGGCTCACCACCATATACACTGCAAGAATTACTATTCTTGTGGGCCCCTCTCGGTAAATCCTAGAGGGCTTTCCTCTCGTTATTGCGAGATTCGTCGTTAGATAACGGCAAGTTCCCTTTCTTACTATCCTATTTTCATCTTGTGGCTTGACGGGTCACTGCCATCGTCGTCGATCTCTATCAACTACCCTTGCGACT

This data set concerns HEK293 cells. The data set is classed as cell-based, human. Particulars: luminescence from secreted Gluc in supernatant 24 hours after transfection of HEK293 cells; circular RNA encoding Gluc with the named IRES (UTR truncated to 675 nt).
Consider B1, for which the Expression was found to be 1.30E+05.

Turning to B2, the Expression was determined as 3.87E+06. The value for B3 was 1.80E+06. For the molecule B4, the Expression is listed as 1.38E+05. For B5 the value was 1.01E+05; for B6, 1.19E+05. B7 displayed an Expression of 6.83E+07. The value for B8 was 1.35E+05. For B9 the value was 3.73E+05.

On to B10, for which the Expression is listed as 1.22E+05.

With B11, the Expression was 1.89E+05.

These data come from US20230226096A1 (Orna Therapeutics, Inc., priority 2020, published 2023).
